# Target: L. monocytogenes AgrC (Listeria monocytogenes (EGD-e))
# Test: cell-based or functional assay
Substance,"EC50 (agr-GFP reporter, ΔagrD strain) [nM]","Max Activation Observed (agr-GFP reporter, ΔagrD strain) [%]","Max Inhibition Observed (agr-GFP reporter, wild-type strain) [%]","IC50 (agr-GFP reporter, wild-type strain) [nM]"
AIP C2Dap (peptide),342,92.9,5.32,
AIP A1K/C2dC/M4dM (peptide),,8.1,88.6,1770
"L. monocytogenes AIP, A-(C-F-M-F-V) (peptide)",29.7,114,,
AIP C2dDap (peptide),,14.3,19.3,
AIP F5W (peptide),1130,85.8,8.43,
AIP C2dC/M4dM (peptide),24.1,35.7,64.8,242
AIP F3H (peptide),,12.4,24.9,
AIP F5H (peptide),,7.13,2.19,
AIP F5L (peptide),2060,64.8,8.97,
AIP F3W (peptide),414,60.6,27.1,2180
AIP A1P (peptide),29,76.8,23.7,611
AIP F5Y (peptide),5620,44.4,6.61,
AIP A1K/M4dM (peptide),4.18,74.1,20.2,
AIP M4dA (peptide),455,82,9.54,
AIP A1V (peptide),7.67,109,1.63,
AIP F3Y (peptide),518,47.4,33.4,3460
AIP A1T (peptide),35.2,88.1,11.7,420
AIP F3L (peptide),693,37.6,33.4,3600

# Target: L. monocytogenes AgrC (Listeria monocytogenes (EGD-e))
# Test: cell-based or functional assay
# Remark: another data set of the same source
Substance,"Max Activation Observed (agr-GFP reporter, ΔagrD strain) [%]","Max Inhibition Observed (agr-GFP reporter, wild-type strain) [%]","EC50 (agr-GFP reporter, ΔagrD strain) [nM]","Max Activation (agr-GFP reporter, ΔagrD strain) [%]","Max Inhibition (agr-GFP reporter, wild-type strain) [%]","IC50 (agr-GFP reporter, wild-type strain) [nM]"
AIP F3dF (peptide),6.63,14.7,,,,
AIP F5dF (peptide),72.3,2.71,2180,,,
"L. monocytogenes AIP, A-(C-F-M-F-V) (peptide)",,,29.6,114,2.66,
AIP M4A (peptide),53.5,7.85,1980,,,
AIP V6A (peptide),69,15,241,69,15,
L. grandensis tr AIP (peptide),,,,10.1,0,
AIP C2dC (peptide),41,48.4,106,,,3970
AIP F3A (peptide),9.72,3.65,,,,
L. kieliensis AIP (peptide),,,,10.4,0,
AIP M4dM (peptide),111,3.99,10.2,,,
AIP V6dV (peptide),72.9,,883,,,
AIP A1dA (peptide),58.8,15.2,96.9,,,
L. grayi AIP (peptide),,,,10.7,0.42,
AIP F5A (peptide),6.37,,,,,
Lm AIP F3S (peptide),,,,16.1,16.3,
L. newyorkensis AIP (peptide),,,,23.6,0.96,
L. weihenstephanensis AIP (peptide),,,,11.2,0,
